In patent US20030228627:

Biological target: Full-length human Flag-tagged p53 (native, unacetylated) (UniProt P04637)

Substance: Full-length human histidine-tagged p300
- acetylation of p53 by p300 in the presence of 3H-acetyl CoA (electrophoresis, fluorography): p300 efficiently acetylated p53
